This note sets out measurements from US20230038638A1, “COMPLEMENT FACTOR I-RELATED COMPOSITIONS AND METHODS” (published 2023).

For one assay, the target named is T1, human C4b (human) (UniProt P0C0L5).
T1 sequence: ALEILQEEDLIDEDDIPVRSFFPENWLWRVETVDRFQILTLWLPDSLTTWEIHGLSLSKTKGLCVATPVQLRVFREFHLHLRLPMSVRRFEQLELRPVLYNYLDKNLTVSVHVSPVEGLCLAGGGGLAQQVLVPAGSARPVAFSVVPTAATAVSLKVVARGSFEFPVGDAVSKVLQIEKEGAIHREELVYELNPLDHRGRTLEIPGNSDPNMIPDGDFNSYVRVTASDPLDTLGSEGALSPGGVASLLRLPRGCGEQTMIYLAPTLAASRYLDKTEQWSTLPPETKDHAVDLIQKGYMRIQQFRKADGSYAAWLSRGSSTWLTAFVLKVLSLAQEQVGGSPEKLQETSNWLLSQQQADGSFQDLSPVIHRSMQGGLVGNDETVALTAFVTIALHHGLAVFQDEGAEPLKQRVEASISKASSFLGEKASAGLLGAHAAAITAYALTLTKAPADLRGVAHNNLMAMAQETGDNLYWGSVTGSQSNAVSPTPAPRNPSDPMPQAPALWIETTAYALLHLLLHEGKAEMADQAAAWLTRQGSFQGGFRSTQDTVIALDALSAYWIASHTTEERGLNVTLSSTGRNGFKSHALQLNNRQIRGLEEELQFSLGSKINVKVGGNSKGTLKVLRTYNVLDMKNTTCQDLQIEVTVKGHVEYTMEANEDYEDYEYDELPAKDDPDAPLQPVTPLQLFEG

Assay [1] concerns the target soluble human C3b (human) (UniProt P01024).

In the case of CFI-HSA N531G; P535A; R557K (enzyme), the C4b Screen Ref Fold (fold vs CFI-HSA wild type) in the assay with human C4b (human) amounted to 4.13. The iC3b Screen Ref Fold (fold vs CFI-HSA wild type) in assay [1] was found to be 1.65.

Regarding “CFI-HSA N531G; P535A; ΔC-term (Δ558-PFISQYNV (SEQ ID NO: 14)-565) (enzyme)”, in the assay with human C4b (human), the C4b Screen Ref Fold (fold vs CFI-HSA wild type) is 0.96. For the same substance, the iC3b Screen Ref Fold (fold vs CFI-HSA wild type) in assay [1] worked out at 0.24.

Turning to CFI-HSA P535G; E530Y (enzyme), in the assay with human C4b (human), the C4b Screen Ref Fold (fold vs CFI-HSA wild type) was 0.11. The iC3b Screen Ref Fold (fold vs CFI-HSA wild type) in assay [1] is 0.22.

As to CFI-HSA P538G (enzyme), the C4b Screen Ref Fold (fold vs CFI-HSA wild type) with human C4b (human) turned out to be 0.07. For the same substance, the iC3b Screen Ref Fold (fold vs CFI-HSA wild type) in assay [1] was -0.01.

Consider CFI-HSA Q69G (enzyme), for which the C4b Screen Ref Fold (fold vs CFI-HSA wild type) in the assay with human C4b (human) was 0.14. Further, the iC3b Screen Ref Fold (fold vs CFI-HSA wild type) in assay [1] was determined as 1.17.

As to CFI-HSA R327G (enzyme), the C4b Screen Ref Fold (fold vs CFI-HSA wild type) with human C4b (human) was determined as 0.26. The iC3b Screen Ref Fold (fold vs CFI-HSA wild type) in assay [1] was determined as 0.5.

Take CFI-HSA R365A (enzyme): in the assay with human C4b (human), the C4b Screen Ref Fold (fold vs CFI-HSA wild type) is 0.56. The iC3b Screen Ref Fold (fold vs CFI-HSA wild type) in assay [1] was 0.5.

For CFI-HSA R365D (enzyme), in the assay with human C4b (human), the C4b Screen Ref Fold (fold vs CFI-HSA wild type) was 0.02. Besides, the iC3b Screen Ref Fold (fold vs CFI-HSA wild type) in assay [1] turned out to be 0.03.

For CFI-HSA R365E (enzyme), in the assay with human C4b (human), the C4b Screen Ref Fold (fold vs CFI-HSA wild type) was -0.06. For the same substance, in assay [1], the iC3b Screen Ref Fold (fold vs CFI-HSA wild type) was 0.02.

As to CFI-HSA R365F (enzyme), the C4b Screen Ref Fold (fold vs CFI-HSA wild type) in the assay with human C4b (human) came out at 0.23. Also, the iC3b Screen Ref Fold (fold vs CFI-HSA wild type) in assay [1] was found to be 0.64.

For CFI-HSA R365G (enzyme), the C4b Screen Ref Fold (fold vs CFI-HSA wild type) with human C4b (human) stood at 0.35. Further, the iC3b Screen Ref Fold (fold vs CFI-HSA wild type) in assay [1] amounted to 0.16.

Consider CFI-HSA R365H (enzyme), for which the C4b Screen Ref Fold (fold vs CFI-HSA wild type) with human C4b (human) came to 0.31. Moreover, the iC3b Screen Ref Fold (fold vs CFI-HSA wild type) in assay [1] came out at 0.43.

As to CFI-HSA R365I (enzyme), the C4b Screen Ref Fold (fold vs CFI-HSA wild type) with human C4b (human) was found to be 1.16. Besides, in assay [1], the iC3b Screen Ref Fold (fold vs CFI-HSA wild type) came to 0.3.

With CFI-HSA R365K (enzyme), the C4b Screen Ref Fold (fold vs CFI-HSA wild type) in the assay with human C4b (human) turned out to be 0.39. In assay [1], the iC3b Screen Ref Fold (fold vs CFI-HSA wild type) was 1.01.

CFI-HSA R365L (enzyme): the C4b Screen Ref Fold (fold vs CFI-HSA wild type) with human C4b (human) turned out to be 0.6. The iC3b Screen Ref Fold (fold vs CFI-HSA wild type) in assay [1] came out at 0.16.

As for CFI-HSA R365M (enzyme), the C4b Screen Ref Fold (fold vs CFI-HSA wild type) in the assay with human C4b (human) is 0.13. Also, the iC3b Screen Ref Fold (fold vs CFI-HSA wild type) in assay [1] was found to be 0.43.

As to CFI-HSA R365N (enzyme), the C4b Screen Ref Fold (fold vs CFI-HSA wild type) in the assay with human C4b (human) turned out to be 0.1. Moreover, the iC3b Screen Ref Fold (fold vs CFI-HSA wild type) in assay [1] came to 0.04.

CFI-HSA R365P (enzyme): in the assay with human C4b (human), the C4b Screen Ref Fold (fold vs CFI-HSA wild type) came to 0.18. Moreover, the iC3b Screen Ref Fold (fold vs CFI-HSA wild type) in assay [1] came out at 0.07.

Turning to CFI-HSA R365Q (enzyme), the C4b Screen Ref Fold (fold vs CFI-HSA wild type) in the assay with human C4b (human) amounted to 0.18. Besides, the iC3b Screen Ref Fold (fold vs CFI-HSA wild type) in assay [1] came to 0.64.

CFI-HSA R365S (enzyme): the C4b Screen Ref Fold (fold vs CFI-HSA wild type) in the assay with human C4b (human) amounted to 0.18. In assay [1], the iC3b Screen Ref Fold (fold vs CFI-HSA wild type) amounted to 0.6.

Turning to CFI-HSA R365T (enzyme), the C4b Screen Ref Fold (fold vs CFI-HSA wild type) with human C4b (human) worked out at 0.96. Moreover, the iC3b Screen Ref Fold (fold vs CFI-HSA wild type) in assay [1] stood at 0.56.

On to CFI-HSA R365V (enzyme), for which the C4b Screen Ref Fold (fold vs CFI-HSA wild type) in the assay with human C4b (human) came out at 1.25. Moreover, the iC3b Screen Ref Fold (fold vs CFI-HSA wild type) in assay [1] came out at 0.43.

In the case of CFI-HSA R365W (enzyme), in the assay with human C4b (human), the C4b Screen Ref Fold (fold vs CFI-HSA wild type) was 0.24. In addition, the iC3b Screen Ref Fold (fold vs CFI-HSA wild type) in assay [1] worked out at 0.89.

For the substance CFI-HSA R365Y (enzyme), the C4b Screen Ref Fold (fold vs CFI-HSA wild type) in the assay with human C4b (human) came out at 0.63. Also, the iC3b Screen Ref Fold (fold vs CFI-HSA wild type) in assay [1] was determined as 0.74.

In the case of CFI-HSA R371G (enzyme), the C4b Screen Ref Fold (fold vs CFI-HSA wild type) in the assay with human C4b (human) is 0.15. The iC3b Screen Ref Fold (fold vs CFI-HSA wild type) in assay [1] was 0.17.

With CFI-HSA R456G (enzyme), in the assay with human C4b (human), the C4b Screen Ref Fold (fold vs CFI-HSA wild type) amounted to 0.04. Moreover, the iC3b Screen Ref Fold (fold vs CFI-HSA wild type) in assay [1] was 0.03.

Consider CFI-HSA R484G (enzyme), for which, in the assay with human C4b (human), the C4b Screen Ref Fold (fold vs CFI-HSA wild type) is 0.64. Moreover, the iC3b Screen Ref Fold (fold vs CFI-HSA wild type) in assay [1] was 0.77.
